# PMC12282945
# Substitutions are numbered along the chain they refer to. Read-outs that look alike come from different tables or passages of the source.
# T1: Aca11 (Streptococcus sp. F0441)
# T1 chain: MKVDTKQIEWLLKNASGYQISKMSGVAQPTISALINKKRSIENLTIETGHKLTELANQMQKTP
# T2: AcrIIA32 (Acr-Aca13 fusion) (Streptococcus uberis NZ01)
# T2 chain: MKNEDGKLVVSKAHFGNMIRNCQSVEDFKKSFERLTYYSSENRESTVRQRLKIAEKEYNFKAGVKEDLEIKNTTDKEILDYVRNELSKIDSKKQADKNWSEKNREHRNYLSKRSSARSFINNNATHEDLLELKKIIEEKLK
# T3: A32CTD (Aca13) (Streptococcus uberis NZ01)
# T3 chain: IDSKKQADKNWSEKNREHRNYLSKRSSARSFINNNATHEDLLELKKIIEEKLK
# T4: A35-n-Aca13
# T4 chain: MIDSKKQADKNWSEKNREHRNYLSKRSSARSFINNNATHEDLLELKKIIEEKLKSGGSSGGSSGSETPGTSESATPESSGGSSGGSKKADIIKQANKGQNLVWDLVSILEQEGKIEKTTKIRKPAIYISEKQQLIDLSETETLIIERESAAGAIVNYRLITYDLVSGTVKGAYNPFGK
# T5: A35-c-Aca13
# T5 chain: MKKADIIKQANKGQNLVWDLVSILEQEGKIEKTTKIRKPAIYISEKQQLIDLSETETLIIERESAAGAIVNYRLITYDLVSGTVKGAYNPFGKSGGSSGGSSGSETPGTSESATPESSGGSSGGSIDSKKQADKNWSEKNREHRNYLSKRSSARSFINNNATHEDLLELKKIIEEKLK
# B1: Aca11-s1 IR WT probe (dsDNA)
# DNA 1: GTGTTGACAGTATATAACAAATGTTATATACTATACTTGTAAGATAAATAAAACAA
# DNA 2: TTGTTTTATTTATCTTACAAGTATAGTATATAACATTTGTTATATACTGTCAACAC
# B2: Aca11-s1 scIR probe (dsDNA)
# DNA 1: GTGTTGACAGGCGCGCCTCAATGTTATATACTATACTTGTAAGATAAATAAAACAA
# DNA 2: TTGTTTTATTTATCTTACAAGTATAGTATATAACATTGAGGCGCGCCTGTCAACAC
# B3: Aca13-s1 WT probe (Aca13 probe) (dsDNA)
# DNA 1: AGTTGATAAAAAGTGTTGACTTTTTAACGTACATGTACTATAATATAATCATAAAGAT
# DNA 2: ATCTTTATGATTATATTATAGTACATGTACGTTAAAAAGTCAACACTTTTTATCAACT
# B4: Aca13-s1 scIR1 probe (dsDNA)
# DNA 1: B3 DNA 1 with A8C, A9C, A10C, A11C, A12C, G13T, T14A
# DNA 2: B3 DNA 2 with A45T, C46A, T47G, T48G, T49G, T50G, T51G
# B5: Aca13-s1 scIR2 probe (dsDNA)
# DNA 1: AGTTGATAAAAAGTGTTGACTTTTTAACGTACAGAGCTGTGCATATAATCATAAAGAT
# DNA 2: ATCTTTATGATTATATGCACAGCTCTGTACGTTAAAAAGTCAACACTTTTTATCAACT
# Tests used:
# Test in all cases: EMSA
# Aca11 [1] = target: T1, Aca11
# Aca11 [2] = target: T1, Aca11
# [3] = target: T2, AcrIIA32 (Acr-Aca13 fusion)
# A32CTD (Aca13) [4] = target: T3, A32CTD (Aca13)
# A35-n-Aca13 = target: T4, A35-n-Aca13
# A35-c-Aca13 = target: T5, A35-c-Aca13
# [5] = target: T2, AcrIIA32 (Acr-Aca13 fusion)
# A32CTD (Aca13) [6] = target: T3, A32CTD (Aca13)
binder,measurement,setting,value
B1,binding result,Aca11 [1],binds
B2,binding result,Aca11 [2],no binding
B3,binding result,[3],binds
same,binding result,A32CTD (Aca13) [4],binds
same,binding result,A35-n-Aca13,binds
same,binding result,A35-c-Aca13,binds
B4,binding result,[3],binds
same,binding result,A32CTD (Aca13) [4],binds
B5,binding result,[5],no binding
same,binding result,A32CTD (Aca13) [6],no binding
